Reference: publication PMC11473482, “Highly efficient synthesis of the chiral ACE inhibitor intermediate (R)-2-hydroxy-4-phenylbutyrate ethyl ester via engineered bi-enzyme coupled systems” (Bioresources and Bioprocessing, 2024)

Columns and labels:
CpCR-L-GDH = test system: T1, CpCR-L-GDH; assay: NADPH depletion at […] nm; assay type: biochemical; conditions: 100 mM phosphate pH 7.0, NADPH co-substrate, fused GDH; substrate of Km not given, OPBE by the assay
T1 construct: fusion: CpCR N-terminal, (GGGGS)2 linker, GDH C-terminal; about 69 kDa; pETDuet-1, E. coli BL21(DE3); with Glucose 1-dehydrogenase

GDH-L-CpCR = test system: T2, GDH-L-CpCR; assay: NADPH depletion at […] nm; assay type: biochemical; conditions: 100 mM phosphate pH 7.0, NADPH co-substrate, fused GDH; substrate of Km not given, OPBE by the assay
T2 construct: fusion: GDH N-terminal, (GGGGS)2 linker, CpCR C-terminal; pETDuet-1, E. coli BL21(DE3); with Glucose 1-dehydrogenase

purified protein = substrate: CCOC(=O)C(=O)CCc1ccccc1; assay: purified protein; assay type: biochemical, Lodderomyces parapsilosis; conditions: 100 mM phosphate pH 7.0, NADPH co-substrate, enzyme from pETDuet-1 strain, substrate of Km not given, OPBE by the assay

Question: `CCOC(=O)C(=O)CCc1ccccc1` [OPBE] was tested. Which Km (CpCR-L-GDH) did it give?
Answer: The Km was 18.9 mM.

Question: And the Km (GDH-L-CpCR)?
Answer: The Km was 16.5 mM.

B1: CpCR (Lodderomyces parapsilosis) (protein)
chain: MTKAVPDKFQGFAVSDPKNWNRPKLASYERKQINPHDVVLKNEVCGLCYSDIHTLSAGWQPLQRDNLVVGHEIIGEVIAVGDEVTEFKVGDRVGIGAASSSCRSCQRCDSDNEQYCKQGAATYNSKDVRSNNYVTQGGYSSHSIADEKFVFAIPEDLPSSYGAPLMCAGITVFSPLIRNLGLDARGKNVGIIGIGGLGHLALQFANAMGANVTAFSRSSSKKEQAMKLGAHDFVATGEDKTWYKNYDDHFDFILNCASGIDGLNLSEYLSTLKVDKKFVSVGLPPSEDKFEVSPFTFLQQGASFGSSLLGSKTEVKEMLNLAAKHNVRPMIEEVPISEENCAKALDRCHAGDVRYRFVFTDFDKAFKA
notes: full-length ORF, 368 residues, about 41 kDa; His-tagged, expressed from pETDuet-1 in E. coli BL21(DE3), Ni-NTA purified
Question: What does the source list for B1?
Answer: Km (purified protein): 19.32 mM; kcat (purified protein): 1.77 s⁻¹; kcat/Km (purified protein): 91 M⁻¹ s⁻¹
